The values below are quoted from earlier work in patent US20240247069A1, “FGFR3 BINDING MOLECULES AND METHODS OF USE THEREOF” (Regeneron Pharmaceuticals, Inc., priority 2023, published 2024).

B1: MS-Pro-26: anti-FGFR3 Ig-like domain 3 antibody of WO 2002/102972 A2; VH SEQ ID NO:36, VL SEQ ID NO:37 (antibody, V domains shown)
VH: QVQLVQSGAEVKKPGASVKVSCKASGYTFTSYYMHWVRQAPGQGLEWMGWINPNSGGTNYAQKFQGRVTMTRDTSISTAYMELSSLRSEDTAVYYCARGYWYAYFTYINYGYFDNWGQGTLVTVSS
VL: DIALTQPASVSGSPGQSITISCTGTSSDVGGYNYVSWYQQHPGKAPKLMIYDVSNRPSGVSNRFSGSKSGNTASLTISGLQAEDEADYYCQSYDNNSDWFGGGTKLTVLGQ
B2: MS-Pro-29: anti-FGFR3 Ig-like domain 3 antibody of WO 2002/102972 A2; VH SEQ ID NO:40, VL SEQ ID NO:41 (antibody, V domains shown)
VH: QVQLVQSGAEVKKPGASVKVSCKASGYTFTSYYMHWVRQAPGQGLEWMGWINPNSGGTNYAQKFQGRVTMTRDTSISTAYMELSSLRSEDTAVYYCARTWQYSYFYYLDGGYYFDIWGQGTLVTVSS
VL: DIVLTQSPATLSLSPGERATLSCRASQSVSSSYLAWYQQKPGQAPRLLIYGASSRATGVPARFSGSGSGTDFTLTISSLEPEDFATYYCQQTNNAPVTFGQGTKVEIKRT
B3: MS-Pro-28: anti-FGFR3 Ig-like domain 3 antibody of WO 2002/102972 A2; VH SEQ ID NO:38, VL SEQ ID NO:39 (antibody, V domains shown)
VH: QVQLVQSGAEVKKPGSSVKVSCKASGGTFSSYAISWVRQAPGQGLEWMGGIIPIFGTANYAQKFQGRVTITADESSTAYMELSSLRSEDTAVYYCARGGGWVSHGYYYLFDLWGQGTLVTVSS
VL: DIQMTQSPSSLSASVGDRVTITCRASQGISSYLAWYQQKPGKAPKLLIYAASSLQSGVPSRFSGSGSGTDFTLTISSLQPEDFAVYYCFQYGSIPPTFGQGTKVEIKRT
B4: FGA0007: anti-FGFR3 (S249C mutant) antibody of WO 2021/010326 A1; VH SEQ ID NO:88, VL SEQ ID NO:89 (antibody, V domains shown)
VH: QSVEESGGRLVTPGTPLTLTCTVSGFSLSSYPMSWVRQAPGKGLEWIGIISSSGRTYYASWAKGRFTISKASSTTAALKMTSLTTEDTATYFCARGGVYKYDDYGDYVLNLWGRGTLVTVSS
VL: AIEMTQTPFSVSAAVGGTVTINCQASENIYSNLAWYQQKPGQPPKLLIYAASYLASGVPSRFKGSGSGTDYTLTISGVQCADAATYYCQCTLYSSTYGVAFGGGTEVVVK
B5: MS-Pro-2: anti-FGFR3 Ig-like domain 2 antibody of WO 2002/102972 A2; VH SEQ ID NO:24, VL SEQ ID NO:25 (antibody, V domains shown)
VH: QVQLVQSGAEVKKPGASVKVSCKASGYTFTSYYMHWVRQAPGQGLEWMGWINPNSGGTNYAQKFQGRVTMTRDTSISTAYMELSSLRSEDTAVYYCARDFLGYEFDYWGQGTLVTVSS
VL: DIELTQPPSVSVAPGQTARISCSGDALGDKYASWYQQKPGQAPVLVIYDDSDRPSGIPERFSGSNSGNTATLTISGTQAEDEADYYCQSYDYSADYVFGGGTKLTVLGQ
B6: FGA0005: anti-FGFR3 (S249C mutant) antibody of WO 2021/010326 A1; VH SEQ ID NO:86, VL SEQ ID NO:87 (antibody, V domains shown)
VH: QSLEESGGRLVTPGTPLTLTCTASGFSLSTYWICWVRQAPGEGLEWIGYISSSGNTYYASWAKGRFTISKTSSTTVDLKMTSLTTEDTATYFCGGHNSDYITGWALDPWGPGTLVTVSS
VL: AAVLTQTASPMSAAVGGTVTINCQSSKSVYRDKWLSWFQQKPGQPPKLLIYGASNLASGVSSRFKGSGSGTQFTLTISDVQCDDAATYYCLGGYSDNSEDAFGGGTEVVVK

One series relates to FGFR3. The settings on record: Table T-3, exemplary FGFR3 D3 binding sequences from cited PCT publications.
Consider B1, for which the Activity entry is listed as “Antagonistic”.
With B2, the Activity result is recorded as “Antagonistic”.
As to B3, the Activity entry is “Antagonistic”.

The series is the same for the next values; noted with them: literature antibodies, sequences from cited PCT publications.
As to B1, the Activity result is “Antagonistic”.
On to B4, for which the Activity entry was “Antagonistic”.
On to B5, for which the Activity result is on record as “Antagonistic”.
B2: the Activity entry is recorded as “Antagonistic”.
B6: the Activity result is recorded as “Antagonistic”.
On to B3, for which the Activity entry is “Antagonistic”.
